Key:
YB-1 (WT) = YB-1 (WT) (UniProt P67809 1-324); experiment: EMSA and filter binding
YB-1 (1-219), truncated = YB-1 (1-219), truncated (UniProt P67809 1-219); experiment: EMSA and filter binding
Sequence of YB-1 (1-219), truncated (P67809 1-219): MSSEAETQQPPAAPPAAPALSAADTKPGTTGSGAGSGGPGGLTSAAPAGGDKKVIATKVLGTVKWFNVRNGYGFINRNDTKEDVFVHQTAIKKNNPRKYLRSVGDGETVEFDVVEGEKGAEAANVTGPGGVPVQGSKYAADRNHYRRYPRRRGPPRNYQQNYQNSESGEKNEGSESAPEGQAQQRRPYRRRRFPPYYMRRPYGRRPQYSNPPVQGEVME

Sequence of YB-1 (WT) (P67809 whole entry, the tested form may be a part): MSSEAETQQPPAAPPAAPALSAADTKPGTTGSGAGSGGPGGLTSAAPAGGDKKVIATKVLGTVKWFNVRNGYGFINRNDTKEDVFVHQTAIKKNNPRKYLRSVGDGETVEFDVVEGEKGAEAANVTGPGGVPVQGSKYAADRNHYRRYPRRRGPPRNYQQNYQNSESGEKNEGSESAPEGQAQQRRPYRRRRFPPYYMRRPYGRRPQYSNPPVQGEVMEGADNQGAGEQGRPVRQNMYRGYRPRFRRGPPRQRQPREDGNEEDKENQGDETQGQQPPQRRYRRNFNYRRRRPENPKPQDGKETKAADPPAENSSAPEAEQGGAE

AAACTGATTGGCCAAAAA (ssDNA) [18-nt Y-box ssDNA]
binding result (YB-1 (WT)): binds | binding result (YB-1 (1-219), truncated): binds

From paper PMC3905071
